*1 amine or outer side, *2 acyl side, *3 side chain or, on linkers, in order; H or OH if unused. Where no end group is shown, it is not given here. Side-chain parts run from the residue outwards. [ ]: non-standard residue; d: D form. The star is where a group is joined. 8‑(4-carboxyphenoxy)octanoyl = O=C(O)c1ccc(OCCCCCCCC(=O)*)cc1; Decanoyl(10-(4-HOOC-PhO)) = O=C(O)c1ccc(OCCCCCCCCCC(=O)*)cc1; γGlu = O=C(O)[C@H](CCC(=O)[*:2])N[*:1]; 13‑carboxytridecanoyl = C14 diacid; AEEA = NCCOCCOCC(=O)O; Aib = CC(C)(N)C(=O)O
Experiments:
human GLP-1 receptor [1] = molecular target: T1, human GLP-1 receptor (human, UniProt P43220 24-463); assay: SPA, displacement of 125I-GLP-1(7-36)NH2, 0.005% HSA
T1 construct: whole, on cells; Used as purified membranes of the transfected hamster cells, not whole cells; also called hGLP-1

human GLP-1 receptor [2] = molecular target: T1, human GLP-1 receptor; assay: SPA, 2.0% vs 0.005% HSA

Which IC50 (human GLP-1 receptor [1]) does the source give for H[Aib]EGTFTSDVSK([AEEA-AEEA-AEEA-AEEA-Decanoyl(10-(4-HOOC-PhO))])YLEEQAAK([AEEA-AEEA-AEEA-AEEA-Decanoyl(10-(4-HOOC-PhO))])EFIAWLVQGRG [GLP-1 derivative of Example 71: [Aib8,Lys18,Glu22,Gln34]-GLP-1-(7-37)-peptide] here?
Its IC50 is < 1 µM.

What about the “ratio IC50 high HSA/IC50 low HSA” value (human GLP-1 receptor [2]) of the same binder?
Its value is > 1.

H[Aib]EGTFTSDVSK([AEEA-AEEA-γGlu-2‑phenylcyclopropanecarbonyl])YLEEQAAK([AEEA-AEEA-γGlu-2‑phenylcyclopropanecarbonyl])EFIAWLVQGRG [GLP-1 derivative of Example 79: [Aib8,Lys18,Glu22,Gln34]-GLP-1-(7-37)-peptide] was tested. Which IC50 (human GLP-1 receptor [1]) did it give?
Its IC50 is < 1 µM.

And the “ratio IC50 high HSA/IC50 low HSA” value (human GLP-1 receptor [2])?
The value was > 1.

H[Aib]EGTFTSDVSK([AEEA-AEEA-γGlu-13‑carboxytridecanoyl])YLEEQAAK([AEEA-AEEA-γGlu-13‑carboxytridecanoyl])EFIAWLVQGRG [GLP-1 derivative of Example 80: [Aib8,Lys18,Glu22,Gln34]-GLP-1-(7-37)-peptide] was tested. Which IC50 (human GLP-1 receptor [1]) did it give?
Its IC50 is < 1 µM.

And the “ratio IC50 high HSA/IC50 low HSA” value (human GLP-1 receptor [2])?
The value was > 1.

For H[Aib]EGTFTSDVSK([γGlu-AEEA-AEEA-Decanoyl(10-(4-HOOC-PhO))])YLEEQAAK([γGlu-AEEA-AEEA-Decanoyl(10-(4-HOOC-PhO))])EFIAWLVQGRG [GLP-1 derivative of Example 82: [Aib8,Lys18,Glu22,Gln34]-GLP-1-(7-37)-peptide], which IC50 (human GLP-1 receptor [1]) is on record?
Its IC50 is < 1 µM.

And the “ratio IC50 high HSA/IC50 low HSA” value (human GLP-1 receptor [2])?
The value was > 1.

What does the source list for H[Aib]EGTFTSDVSK([AEEA-AEEA-13‑carboxytridecanoyl])YLEEQAAK([AEEA-AEEA-13‑carboxytridecanoyl])EFIAWLVQGRG [GLP-1 derivative of Example 84: [Aib8,Lys18,Glu22,Gln34]-GLP-1-(7-37)-peptide]?
IC50 (human GLP-1 receptor [1]): < 1 µM; ratio IC50 high HSA/IC50 low HSA (human GLP-1 receptor [2]): > 1

H[Aib]EGTFTSDVSK([AEEA-AEEA-Decanoyl(10-(4-HOOC-PhO))])YLEEQAAK([AEEA-AEEA-Decanoyl(10-(4-HOOC-PhO))])EFIAWLVQGRG [GLP-1 derivative of Example 85: [Aib8,Lys18,Glu22,Lys26,Gln34]-GLP-1-(7-37)-peptide] was tested. Which IC50 (human GLP-1 receptor [1]) did it give?
Its IC50 is < 1 µM.

And the “ratio IC50 high HSA/IC50 low HSA” value (human GLP-1 receptor [2])?
Its value is > 1.

Which results are given for H[Aib]EGTFTSDVSK([AEEA-γGlu-AEEA-13‑carboxytridecanoyl])YLEEQAAK([AEEA-γGlu-AEEA-13‑carboxytridecanoyl])EFIAWLVQGRG [GLP-1 derivative of Example 86: [Aib8,Lys18,Glu22,Gln34]-GLP-1-(7-37)-peptide]?
IC50 (human GLP-1 receptor [1]): < 1 µM; ratio IC50 high HSA/IC50 low HSA (human GLP-1 receptor [2]): > 1

Which results are given for H[Aib]EGTFTSDVSK([AEEA-AEEA-γGlu-8‑(4-carboxyphenoxy)octanoyl])YLEEQAAK([AEEA-AEEA-γGlu-8‑(4-carboxyphenoxy)octanoyl])EFIAWLVQGRG [GLP-1 derivative of Example 87: [Aib8,Lys18,Glu22,Gln34]-GLP-1-(7-37)-peptide]?
IC50 (human GLP-1 receptor [1]): < 1 µM; ratio IC50 high HSA/IC50 low HSA (human GLP-1 receptor [2]): > 1

For H[Aib]EGTFTSDVSK([AEEA-γGlu-AEEA-Decanoyl(10-(4-HOOC-PhO))])YLEEQAAK([AEEA-γGlu-AEEA-Decanoyl(10-(4-HOOC-PhO))])EFIAWLVQGRG [GLP-1 derivative of Example 90: [Aib8,Lys18,Glu22,Gln34]-GLP-1-(7-37)-peptide], which IC50 (human GLP-1 receptor [1]) is on record?
Its IC50 is < 1 µM.

And the “ratio IC50 high HSA/IC50 low HSA” value (human GLP-1 receptor [2])?
Its value is > 1.
